# Laboratory results from article PMC4370742, “Expression, purification, and characterization of galactose oxidase of Fusarium sambucinum in E. coli” (Protein Expression and Purification, 2015).
# B1: galactose oxidase (GalOx) of Fusarium sambucinum (Fusarium sambucinum) (protein)
# chain: ASAPIGSAISRNNWAVTCDSAQPGNECNKAIDGNRDTFWHTFYGANGDPKPPHTYNIDMKTTQNVNGLSMLPRQDGSQNGWIGRHEVYLSSDGKTWGSPVATGSWFADSTTKYSNFETRPARYVRLVALAEANGQPWTSIAEINVYQASSYTAPQPGLGRWGPTIDLPIVPAAAAIEPTSGRVLMWSSYRNDAFGGSPGGVTLTSSWDPSSGIVSDRTVTVTKHDMFCPGISMDGNGQIVVTGGNDAKKTSLYDSPSDSWVPGPDMQVARGYQSSATMSDGRVFTIGGSWSGGIFEKNGEVYSPSSKTWTSLPNAKVNPMLTADKQGLYRSDNHAWLFGWKKGSVFQAGPSTAMNWYYTSGSGDVKSAGKRQSNRGVAPDAMCGNAVMYDAVQGKILTFGGSPDYQDSDATTNAHIITLGEPGSTPKTVFASNGLYFARTFHTSVVLPDGSTFITGGQRRGIPFEDSTPVLTPEIYVPEQDTFYKQNPNSIVRVYHSISLLLPDGRVFNGGGGLCGDCTTNHFDAQIFTPNYLYDSNGNLATRPKITRTSTQSVKVGGRVTISTDYSIRKASLIRYGTATHTVNTDQRRIPLTLMNNGGNSYSFQVPSDTGIALPGYWMLFVINSAGVPSVASTIRVTQ
# notes: C-terminal His6 tag kept (pET21a NdeI/NotI); E. coli BL21(DE3); IMAC
# Assays:
# [1] = substrate: OC[C@H]1O[C@H](OC[C@H]2O[C@H](O[C@]3(CO)O[C@H](CO)[C@@H](O)[C@@H]3O)[C@H](O)[C@@H](O)[C@@H]2O)[C@H](O)[C@@H](O)[C@H]1O; assay: purified protein; assay type: biochemical, Fusarium sambucinum; details: O2 at air saturation, 20 mM potassium phosphate pH 7.0, 30 °C, Cu-activated enzyme
# [2] = substrate: CO[C@@H]1O[C@H](CO)[C@H](O)[C@H](O)[C@H]1O; assay: purified protein; assay type: biochemical, Fusarium sambucinum; details: O2 at air saturation, 20 mM potassium phosphate pH 7.0, 30 °C, Cu-activated enzyme
protein,measurement,setting,value
B1,Km,[1],20 ± 2.3 mM
same,Vmax,[1],43 µmol/min/mg
same,kcat,[1],49 s⁻¹
same,kcat/Km,[1],2500 M⁻¹ s⁻¹
same,Km,[2],39 ± 1.7 mM
same,Vmax,[2],67 µmol/min/mg
same,kcat,[2],77 s⁻¹
same,kcat/Km,[2],2000 M⁻¹ s⁻¹
